# According to the NTF2 design screens of Basanta et al. (2020):
# Assay: protease stability score; higher = more stable; yeast display proteolysis, trypsin and chymotrypsin;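 also: relative to predicted unfolded state with 0 unfolded-like and 1 meaning tenfold more protease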
row,Sequence,protease stability score
1,DRDQHQAEKAFKLLVDILQTGDEEEIYKMADPHMQIDFDGRLHHGRDEFVKLVSETIRKFKNIRVEIHHIEVFDGRMHTDSRIHVGDKEWTIDIHIQKVNGKWKLKHVRVD,0.945
2,DEDRQDAEYALRLWLETWVTGDEDTLLRLMDPHYRLEIGEYHRHGRENVVTFLRFLVEHLGIKHTHVEVHDLDSQGDKVRAHTTLHNKYNGVELVIDSEIILTKINGRWYFKSMHFG,1.2
3,SEEDEEFRHVVERWVRAVTTGNEDELESLLDPNVRLDVGDKRTHGREKWTELFRHLRTQVHHIEITEKHTVGDKVHYRGTLDMTFYVDGVDVRSETETTLVMVKYNGRWQYTHVIIH,1.15
4,DKREEEVHELIRELVESIITGDFRHFFKLLDPHARSEVGDKELHGREQISDWLLKHIRRVKNITFKEVHFHELRVIGDKVEFHFDIRGVINGQDTTLEVEMKARKIDGRWHVEEIRFI,1.28
5,HDEEREVHEWIKLIEHHLRTGDEDAVRKLVDPTVRNDINGVDVVGRREDVERLHQADHIDIELKHVEIQGDKLHIDGVLILDFNGRHFYFRMKIIASKYNGVWKIKEKRVH,0.999
6,SEREEEARKMTRRIIHTFFTGNEDFWDHLVDPNARVVINGVTVHGWERFQELLVDFLKEMRTRHIELRHLDAYGDKAHTDGRVDGDVNGQRVLRIEHLRVDVINGKVHSVEIEFR,0.916
7,DEDTREAEKMYRLFRHLFLTGDWEHTYQLADPHVRTDFNGVEWHGRELALEILLHFLEILGVDHITLKRQEIHIVDGRLLVILHLELRAENHSEDLLIIVIMNKFDGRWHVESEEIKVR,0.539
8,DEDKEWAHRILEHFLDNLRTGNEERLEELADPNTRVVIDGQEEHGMHVFNTLHKELRIDRIHLTSWDIQGDKLHLDVRVDGTFNGQREVTRVHIYFRVVNGRVKDIQIHVI,1.8
9,DEERKFLKKMHEILDKSERTGNEEDIMRLVDPEVRLTVGDKELHGWSAMHEYFKRWIDKFPGVRVHFELNDITIVDGRILNIVHTKFEFDGREFQLTATIFAHKYDGRWTLTSMRYE,1.09
10,SEEEEFWKHIAKVMLDLVTTGNEDLFMKMADPNTKSEFNGRTVVGRERIAEILKKFKNITIIIHHIDIQGEKVRIHGRVLIGDKEIEDDWELVVVDGKIQRLHFEHV,1.29
11,SEEEHRVKELARLFVEVLLTGDWKTLLELMDPNTRLRINGKDFIGMEDAVKAWRDYLDEIRHDDIKLTRIENNEDHSHLDGRQHGIYNGQRTDTILNVDIHMVNGKIKEVHIEIE,1.01
12,TEEEEENMDFLHKWLERTRTGDEHEIKKLADPDVRLRVGNKEIHGRDLFARWAKEIRITHLDEKRFHIYNGKVDFDGINHVTVNGVDETRKVIFHLVKVDGVWRFKEVDIR,0.98
13,DEKEEILVDLFKHFLEAMLTGDEEQVNRLVDPNARHDIDGVEHHGWEFLEWFLSRVDHIELLEVKRVRNIDGRIEADLHIDITVNGKKERHDVEVHIVIIDGVFHSIKVIKH,2.23
14,DELHNLLEHALKIVIELWRTGDWRLIDKMLDPNTLLNFNGKNIHGREEIDRLRKELGIEFFAIEDQDYRRMHIQGDKIELDGDSDIIINGQRRRTHVHLHLEKINGRWVDRRIIFL,0.913
15,SDDHHKAKLFNEWFKQHFDTGDEHLYKRLADPNVRIHINGVDIVGRELATHLLSHIRITHFEVHDHKVQGNKVHTDGRVHGDVNGVEERVYVELVIEKIDGRWLNHQEIWV,0.332
16,SEEEKLWHEIIRRILHSWDTGDEDTLNELIDPNARLIIDVNGRIIRRHGWEEMHEFIEKVRRDLGADHVHFDHINIQGNKVETDVTIEIGDKKMRSHLIIIVIDGQIHELKIIHR,1.83
17,DESEELTEELSRLWLHWYLTGDEEIFKHNFDPNARQDYNGKEIHGRDRVVRFLEELWRMLGAKHFHIRHEEYYGNKVRIEGHITVGDKHRETEIQINIINGKIKEIRIEVK,2.12
18,SEDHENLRKSLEFFKHVVDTGDFRKLLQLADPNTRIIINGQTVHGMELTQKIWIHQFREAGHTRIHIRIEDIDVQGDKIQIDGKLDINGQERDTNLFIEKVNGRWIIRSIEFQ,1.38
19,SEEEEFVEVAIKIVQEIRKTGDEDEQERLADPHVRFDINGQDIHGREKWTKWVHEIRVRMKHVRERHITVINGKAHIHGEVDVHFHVNGVELRIDTKYTVVIEKVNGRWRLREVHLV,2.22
20,DDENKQMEEAIWIWKYMVETGDERINHEFADPHARVDINGKEHHGREEIERFLIEFSEKVKNLRVEIEDFRSINGRVDVILRLTVNGKRVETRVHAIKVDGKWLIKEVRFH,0.624
21,HESHEFVKEAFRLWVESLRTGDEKTLSRYADPHVRVTYDGREFHGRDWYVKLMDELRVNDVKLDDVNVQGEKIDIEGTIDGQVNGQDREIKVRLHAEKINGRWVNKKIQID,1.11
22,DEIEKSVKHHDQVFRTAIETGDEHELEHLADPNVRWDINGVDLHGRELYLKIVLEIRMRIELRVRDVRWQGNYIIVISEVDSHHHINGVETRDRSDAHLIIFKVNGRWELKESRRH,1.35
23,SEEEEILHKMAEDNIQMLQTGDEETLKRLLDPNVRIHIGEFRTHGMEKLSHWLLHLRIRDIRIHSMRIIDGVADIDGTVEIEQGDKRHTVNMRIFIIVINGKNHSFIFRWH,1.76
24,DEVQRDAEEFWRLLVEALVTGDEDLWRKLADPHMRLDVNGVEIHGMEHYLKRIIEEMRRLGVELKDFRLHDVDIQGNKMHLKTHIDGRVNGQKNTRREEYVITKIDGRWQLESIKVH,2.04
25,SEEEELVRQWLERTTEALLTGDEEYVLHLADPRTRFDVGDKEIHGMEEFLKRHLQLRIHHMHWEVTEIRLIDGVARSTGTLEIIMQQGDKRFRVRIRSEVISEKIDGRWRLRSIKIH,1.44

row,Sequence,protease stability score
1,SEDKDNAQDLLHHVVKAWNTGDEDLTRKLFDPHVRLDINGVEIHGWRDLLRVLRELRLRVEMRVHDADFINGVIHLYTTVHSHIHFNGVDFHFHHETRMIILKINGRWLVHSITYL,0.675
2,DEDKHLIETFLERLERILKTGDEEDERRLADPHAKLVQGDKILHGREELIRWLRELGAKHVRLHISHLDVQGDKVETDLRLIIIQGDKEYEKDMKVHVLKVDGRWLLKSIIVE,2.08
3,THEERLYREAMELEREVWETGDEHLIRDMVDPNVRFEINGVNTHGREEMARFVHEFGVDHIHIDHLQRINGRLEVRGKFQVGDKWVRTRFISTKINGRWFVESVHVR,0.626
4,SEDDETVIRMTHIILHAIFTGDEHITERLMDPHAKVTVGEFDTHGWEELDRFWKEMRMKRLKIRRIDFRWVNGRILSEIVVELDGIVNGRERKITMLIVIIIDKIDGRWVVTEFHFRIE,1.43
5,DETEEIAKKVVEYWIREFMTGNEESLLELIDPNAKSDILQGDKELHIVGRESARLFIKRFKGQRMEITHLEVHVQGDKVHVRLHVDIIYNGRKFHVISHVDWEKIDGRWIIHQEKFVFE,1.71
6,DEIHKDAKEFTKRFIDSLHTGDWKELLEMFDPHTRIVVGDKEFIGMDEILRFERELGIEKVDYHLKHVEIRVQGEKADIHITGEIRFNGQTVDRELNIHARKIDGRWKVDEVNLDRR,1.88
7,DEKYKRVEQAVRIYLELISTGDEEMISHYVDPNVQAEVGDYEHHGMEEFIKVVSRVDYLEHSEWKDWRYVDGRIEIEGHLYGKINGKRDVLDIRIIASKVNGKWRLHKVTIK,1.41
8,DEEHEQLERLARDYMHSTETGDEESIRRFFDPHTRYDIDGKESHGWEMIKHWMEEWRIDSVTIHSIHRINGVAHIDVTVHGEIGDKQTTFRVIIDLVIVNGKVHEIRIIFE,-0.086
9,SETEKHLQDIADILVHAEITGDEETLNKMLDPDVRMHNEVNGREYHIHGREEVLKHWREWVTRFKGARIDIEDVHIINGVVHVNMKIIFNGRRIESRLDVEVVNGRVRTIRIHER,2.15
10,DEDEKMSHEASRVTLQVLITGDEEAMHRLLDPNARMDYGDKQFHGWEEVSKLTTELLTRLGVDHYHMNDERIYGEKLDLDLTIHVNGRNRKFIIIVRKINGRWLIDSMTFK,0.576
11,DKEREHLKQLAEIIIHLWHTGDEEILMHLADPNTRLIIEWNGQESQYHGREEMYTIIRRIYEELGADHIHIEDHDVQGDKVIIHSRLEQGDKRVELHLIVVFVNGRLKEMHIHINDK,2.34
12,SEEEEQVTESFEHFFRARYTGDEHTLLRMMDPNVRVIVDGKDIHGWEEVIRYLVHIRIKRSELHDREIRVVNGRAIVHLDVHTDREVDGVRIETRIILILYAEKIDGRWVFKEVKIEVR,1.29
13,NERDERVEELMKLWFESLRTGDWRQMRNLLDPHARVIMLVGDKHVELHGWEAMLLLIHQFRNIRLRIDSTRLQGDKLEIEGTSEFDGKHRNVVIEIQVINGRIHTIKYIED,2.1
14,DEDEDFIRHQIQLYIELFETGDWRSLKRLADPNARHHINGRDLHGMDLFRRHIEHMGIKIKHIKLRDMRVIGDKIELKVENNVEIDGRERSLEEEIIARKIDGRWILESSTIR,0.39
15,SEESEKLERMMRLIMHLLWTGDEETFKRLADPDTRFIYGDFEVHGREDVSRMWIKLLNELRIHSLHVEEVHTIDGRIHAKTEVDGRYNGQHERTKLELIIVIINGRIHTVEIRPK,1.22
16,SELEEWTERMAKQMLDDVETGDEDRLLKLADPHVRVEFIVDGKIEEVHGREELRKLMERLGIKHFEIKRVSIRVIDGRIHVHNDGHMIIDGKTIPVQLHIHAEKVNGRWRVTDLSIRVG,1.51
17,TEEEEYLRKLTKDFIEAFLTGNWKEVARLLDPHTRLHVGEFEIHGREEMMKFMIELITRAGIKHQHIKSFETRIINGVVFLHVHMIVIVNGRNIERRLHVLFVKIDGRWTIEEVSEEHE,1.46
18,DEHREFAKHVLEALVRALETGDEDTIRELFDPNYRIEIGDKTVIGRKYWELFIRRVDHIEVHIIIRDFDVQGNKVIIRGDSHIHLNYDGRTLDIQHHVNFVIRKVDGKWVFHSEHFI,1.79
19,DSDQSKREMDKFLEMVSTGDPDEVNRLLDKDAHAHVGDQTYHGREEISHMWKELREKIDHLEVHDYKVNGNKLEVDMHATINGQNVVFTVVAVLRNGHFESVEVQYRSEEEEEKVKR,0.776
20,DENEEDSKRAVELIEDSMKTGDEELMTKQMDPNVRVDYNGKEHHGWEHAKRWFHLMGVDHLHLHRVRLINGVVHLDVDSRINGREFKVHITALKVDGQWVLKEISIR,1.26
21,DESDTLAKEATREFEEFMRTGDEHSLLKLADPHVRLFWNGKQLVGREDYSKHIKFLLEHFGFDNIESRTEHIDWQGDKLRLHLRMHVNGKTITVEIHSEKINGRWMNREIHFT,1.44
22,SEEDKHTEKLVRELWHAFETGDEDFILDMADPDVKFDFNGRKNVGREEFSRIWEDIFRRFKNIQLELTSITFQGHKVHTKGRTRINGKHHELIVHVVIVNGRLESLTIIIN,1.49
23,DETHELIEFLLKEMIEAWKTGNEEKIMELFDPNVRLDIGDKHYHGREEVVRAMHEYRRRLGAKHITLHDHSVVNGVIHIDTVVNQGDKEVTIHIHIHIVDGKIKRIEIRLK,2.07
24,DDIDHFLLEIVLRFIEDNLTGNEDNLRKMADPDTRIFIHIGEKEFRIHGREAWTEWILTIVDHMRMRLNIRRLEWQGDKARITQEQDIHVGNKTHTTEVELHIVIIDGKMHTVHVELR,1.36
25,SKEETWVKEAYELMTRTIRTGDERLMHELLDPHVRTVINGQESHGREVVLRFLEHIRYEEVTPTHIRIIGDWIDVDIRIHGHFDGRRYELRSTLFMRKVDGKWDLTEIRII,0.709
